T1: LIMYB (L10-[…] MYB DOMAIN-CONTAINING PROTEIN) (Arabidopsis thaliana, UniProt Q9FFJ8 1-449)
T1 sequence: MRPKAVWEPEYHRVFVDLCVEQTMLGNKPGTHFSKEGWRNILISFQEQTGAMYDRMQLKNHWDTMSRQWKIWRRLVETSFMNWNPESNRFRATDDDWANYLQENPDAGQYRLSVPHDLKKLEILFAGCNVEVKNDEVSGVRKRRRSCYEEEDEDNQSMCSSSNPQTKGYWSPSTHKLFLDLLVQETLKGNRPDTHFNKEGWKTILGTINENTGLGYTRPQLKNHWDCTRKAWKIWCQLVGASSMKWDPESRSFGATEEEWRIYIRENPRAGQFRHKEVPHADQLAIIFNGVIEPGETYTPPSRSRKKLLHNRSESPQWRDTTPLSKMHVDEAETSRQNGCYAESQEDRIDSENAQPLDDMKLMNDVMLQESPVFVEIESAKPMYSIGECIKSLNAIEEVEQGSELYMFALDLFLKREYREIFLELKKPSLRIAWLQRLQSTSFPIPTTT


Tests used:
[1] = target: T1, LIMYB (L10-[…] MYB DOMAIN-CONTAINING …); assay: EMSA
[2] = target: T1, LIMYB (L10-[…] MYB DOMAIN-CONTAINING …); assay: competition

Row | Binder | binding result [1] | binding result [2]
1 | RPL18 promoter 26-bp CAAAAC fragment (dsDNA) DNA 1: GATGGAGGAAGCAAAACATTGACCAT DNA 2: ATGGTCAATGTTTTGCTTCCTCCATC | binds | 
2 | RPL18 26-bp mutant competitor (CAAAAC to ATCGTG) (dsDNA) DNA 1: GATGGAGGAAGATCGTGATTGACCAT DNA 2: ATGGTCAATCACGATCTTCCTCCATC |  | no binding

Reference: paper PMC12075613
